Results from paper PMC8892091 (The Journal of Biological Chemistry, 2022).

Key:
His-tag labeled ALKBH6 = His-tag labeled ALKBH6 (human, UniProt Q3KRA9 1-238, fluorescent label on the His-tag (His-tag labeling kit RED-tris-NTA)); test: MST
crystal structure = biological target: the molecule itself; test: crystal structure

Binder | fold higher binding affinity than ALKBH6 itself (His-tag labeled ALKBH6) | binding result (crystal structure)
ZMYND11 peptide (V71 to K151) (domain or fragment, human, UniProt Q15326 71-151, looked up) VGCKGSKAGIEQEGYWLPGDEIDWETENHDWYCFECHLPGEVLICDLCFRVYHSKCLSDEFRLRDSSSPWQCPVCRSIKKK | 3.5 fold | 
ALKBH6 (crystallised, ALKBH6∙Mn2+∙α-KG; holo-ALKBH6) (enzyme, human, UniProt Q3KRA9 1-238, looked up) MEEQDARVPALEPFRVEQAPPVIYYVPDFISKEEEEYLLRQVFNAPKPKWTQLSGRKLQNWGGLPHPRGMVPERLPPWLQRYVDKVSNLSLFGGLPANHVLVNQYLPGEGIMPHEDGPLYYPTVSTISLGSHTVLDFYEPRRPEDDDPTEQPRPPPRPTTSLLLEPRSLLVLRGPAYTRLLHGIAAARVDALDAASSPPNAAACPSARPGACLVRGTRVSLTIRRVPRVLRAGLLLGK |  | binds
